For experiment [1], the target named is HLA-A*02:01. Kind of experiment: IEDB peptide-MHC binding, purified MHC/competitive/radioactivity; ≥ and ≤ were set here for values at or beyond the usual limits of such assays.
The target in experiment [2] is HLA-A*02:01. Kind of experiment: IEDB peptide-MHC binding, purified MHC/competitive/fluorescence; ≥ and ≤ were set here for values at or beyond the usual limits of such assays.
Another experiment deals with HLA-A*11:01. The experiment is described as above.
A further experiment concerns the target HLA-A*03:01. The description is as above. To be noted: source organism: Variola virus.
For experiment [3], the target named is HLA-B*15:01. Described as above.
Experiment [4] deals with HLA-A*01:01. The experiment is described as above.
Another experiment has as its target HLA-C*12:03. The experiment in a line: IEDB peptide-MHC binding, purified MHC/direct/fluorescence; filed as Kd, often an IC50 or EC50 that approximates it; ≥ and ≤ were set here for values at or beyond the usual limits of such assays.
The target of the next experiment is HLA-B*27:05. Described as above. The following applies: source organism: Camelpox virus CMS.
For experiment [5], the target named is HLA-A*02:01. The description is as above. To be noted: source organism: Camelpox virus CMS.
For the next experiment, the target named is HLA-A*69:01. The description is as above. To be noted: source organism: Camelpox virus CMS.
Another experiment has as its target HLA-B*07:02. Described as above. To be noted: source organism: Camelpox virus CMS.
The next experiment has as its target HLA-B*40:01. Described as above. To be noted: source organism: Camelpox virus CMS.
A further experiment deals with HLA-B*58:01. The description is as above.
For a further experiment, the target named is HLA-B*18:01. Described as above. To be noted: source organism: Camelpox virus CMS.
In another experiment the target is HLA-B*48:01. Described as above. To be noted: source organism: Camelpox virus CMS.
The target in another experiment is HLA-B*39:01. The experiment is described as above. To be noted: source organism: Camelpox virus CMS.
In experiment [6] the target is HLA-B*46:01. The experiment is described as above. To be noted: source organism: Camelpox virus CMS.
Experiment [7] has as its target HLA-B*15:01. The description is as above. To be noted: source organism: Camelpox virus CMS.
In experiment [8] the target is HLA-A*68:02. The experiment is described as above. The following applies: source organism: Camelpox virus CMS.
The target in experiment [9] is HLA-B*57:01. The experiment in a line: IEDB peptide-MHC binding, purified MHC/competitive/fluorescence; filed as Kd, often an IC50 or EC50 that approximates it; ≥ and ≤ were set here for values at or beyond the usual limits of such assays. To be noted: source organism: Variola virus.
The next experiment has as its target HLA-B*15:17. The experiment is described as above. The following applies: source organism: Variola virus.
The target of experiment [10] is HLA-A*26:02. The experiment is described as above. The following applies: source organism: Variola virus.
Experiment [11] deals with HLA-A*01:01. Described as above. To be noted: source organism: Variola virus.
Experiment [12] has as its target HLA-B*57:01. Kind of experiment: IEDB peptide-MHC binding, purified MHC/direct/fluorescence; filed as Kd, often an IC50 or EC50 that approximates it; ≥ and ≤ were set here for values at or beyond the usual limits of such assays. The following applies: source organism: Mycobacterium tuberculosis variant bovis.
Experiment [13] concerns the target HLA-B*46:01. Kind of experiment: IEDB peptide-MHC binding, purified MHC/competitive/fluorescence; filed as Kd, often an IC50 or EC50 that approximates it; ≥ and ≤ were set here for values at or beyond the usual limits of such assays. To be noted: source organism: Mycobacterium tuberculosis variant bovis BCG str. Pasteur 1173P2.
Another experiment deals with HLA-A*26:01. The experiment in a line: IEDB peptide-MHC binding, purified MHC/direct/fluorescence; filed as Kd, often an IC50 or EC50 that approximates it; ≥ and ≤ were set here for values at or beyond the usual limits of such assays. To be noted: source organism: Orthohantavirus dobravaense.
The target in experiment [14] is HLA-A*26:02. Described as above.
In experiment [15] the target is HLA-A*02:01. Kind of experiment: IEDB peptide-MHC binding, purified MHC/competitive/fluorescence; filed as Kd, often an IC50 or EC50 that approximates it; ≥ and ≤ were set here for values at or beyond the usual limits of such assays.
For a further experiment, the target named is HLA-A*32:01. The experiment in a line: IEDB peptide-MHC binding, purified MHC/competitive/radioactivity; filed as Kd, often an IC50 or EC50 that approximates it; ≥ and ≤ were set here for values at or beyond the usual limits of such assays. To be noted: source organism: Vaccinia virus WR.
For a further experiment, the target named is HLA-A*30:01. The experiment is described as above. To be noted: source organism: Vaccinia virus WR.
For the next experiment, the target named is HLA-B*15:03. The description is as above. To be noted: source organism: Vaccinia virus WR.
In experiment [16] the target is HLA-B*15:01. The experiment is described as above. The following applies: source organism: Vaccinia virus WR.
For a further experiment, the target named is HLA-B*08:01. The description is as above. To be noted: source organism: Vaccinia virus WR.
Another experiment concerns the target HLA-A*02:06. The description is as above. The following applies: source organism: Trypanosoma cruzi.
The target of another experiment is HLA-A*02:02. The description is as above. To be noted: source organism: Trypanosoma cruzi.
A further experiment has as its target HLA-A*02:03. The experiment is described as above. The following applies: source organism: Trypanosoma cruzi.
The target of experiment [17] is HLA-A*68:02. Described as above. The following applies: source organism: Trypanosoma cruzi.
Another experiment concerns the target HLA-C*15:02. Kind of experiment: IEDB peptide-MHC binding, purified MHC/direct/fluorescence; filed as Kd, often an IC50 or EC50 that approximates it; ≥ and ≤ were set here for values at or beyond the usual limits of such assays. To be noted: source organism: Canarypox virus.
For a further experiment, the target named is HLA-C*03:03. The description is as above. The following applies: source organism: Canarypox virus.
The next experiment deals with HLA-A*02:11. Kind of experiment: IEDB peptide-MHC binding, purified MHC/competitive/fluorescence; filed as Kd, often an IC50 or EC50 that approximates it; ≥ and ≤ were set here for values at or beyond the usual limits of such assays. To be noted: source organism: Canarypox virus.
Where [18] appears, read: source organism: Zaire ebolavirus.
[19] abbreviates: source organism: Vaccinia virus WR.
The mark [20] stands for this setting: source organism: Canarypox virus.

pIC50, pKd: −log10 of the molar value.

In the case of YLDSGIHSGA, the pIC50 with HLA-A*02:01 [1] (source organism: Homo sapiens) was 7.08.

Turning to LSLTKLFSY, the pIC50 with HLA-A*02:01 [2] (source organism: Variola virus) was at most 3.99; with HLA-A*11:01 (source organism: Variola virus), 5.38; in the experiment with HLA-A*03:01, 4.72; with HLA-B*15:01 [3] (source organism: Variola virus) it was 4.81; in the experiment with HLA-A*01:01 [4] (source organism: Variola virus), 5.43.

Regarding LLDVPTAAV, in the experiment with HLA-A*02:01 [1] (source organism: Homo sapiens), the pIC50 was 8.00.

As for HAATNFREI, the pKd with HLA-C*12:03 (source organism: Angomonas deanei) was 7.60.

SSDDIPPRW: the pKd with HLA-B*27:05 is at most 4.70; in the experiment with HLA-A*02:01 [5] it was at most 4.70; in the experiment with HLA-A*69:01 it was at most 4.70; with HLA-B*07:02 it was at most 4.70; in the experiment with HLA-B*40:01 it was at most 4.70; in the experiment with HLA-B*58:01 (source organism: Camelpox virus CMS) it was 7.55. Besides, the pKd with HLA-B*18:01, with HLA-B*48:01, in the experiment with HLA-B*39:01, with HLA-B*46:01 [6], with HLA-B*15:01 [7] and in the experiment with HLA-A*68:02 [8] was at most 4.70 each time. In addition, the pKd in the experiment with HLA-B*57:01 [9] is 5.83; in the experiment with HLA-B*15:17 it was at most 4.70; in the experiment with HLA-A*26:02 [10], at most 4.70; with HLA-A*01:01 [11] it was at most 4.70.

Regarding VAFYCAGRF, the pKd with HLA-B*57:01 [12] was 6.35; in the experiment with HLA-C*12:03 (source organism: Mycobacterium tuberculosis variant bovis BCG str. Pasteur 1173P2), 7.24; with HLA-B*58:01 (source organism: Mycobacterium tuberculosis variant bovis), 6.95; with HLA-B*46:01 [13] it was 6.13.

In the case of ETVEWALKF, the pKd with HLA-A*26:01 was 8.49; in the experiment with HLA-A*26:02 [14] (source organism: Kurkino virus) it was at least 9.00.

Take FIFLKKNEL: the pKd was 5.84 with HLA-C*12:03 (source organism: Variola virus); 5.52 in the experiment with HLA-A*02:01 [15] (source organism: Variola virus); 4.89 in the experiment with HLA-A*32:01; 7.36 with HLA-A*30:01; 4.73 with HLA-B*15:03; 5.32 with HLA-B*15:01 [16]. For the same sequence, the pKd with HLA-B*08:01 was 7.02.

For FLDPATTTS, the pIC50 with HLA-A*02:01 [2] (setting [18]) was 5.75; with HLA-A*01:01 [4] (setting [18]), at most 3.84.

Sequence FCIKVLCPY had a pKd with HLA-A*26:02 [14] (source organism: West Nile virus SPU116/89) of 7.02.

With LLGLWGTAAL, the pIC50 with HLA-A*02:01 [1] (source organism: Trypanosoma cruzi) is 6.30. For the same sequence, the pKd in the experiment with HLA-A*02:06 was 5.90; with HLA-A*02:02, 8.71; with HLA-A*02:03 it was 8.14; with HLA-A*68:02 [17], 5.09.

In the case of NLIYRNLHL, the pIC50 with HLA-A*02:01 [1] (source organism: Rhinovirus A) was 6.70.

On to FTEQAFYTR, for which the pIC50 was 4.75 in the experiment with HLA-A*11:01 (setting [19]) and 4.58 with HLA-A*01:01 [4] (setting [19]).

For LLQLNETIY, the pIC50 is at most 4.11 in the experiment with HLA-A*02:01 [2] (setting [18]), 5.50 with HLA-B*15:01 [3] (setting [18]) and at most 4.05 with HLA-A*01:01 [4] (setting [18]).

For the sequence CQWGRLWQL, in the experiment with HLA-A*02:01 [1] (source organism: Homo sapiens), the pIC50 was 5.85.

For YIIPCILIL, the pKd with HLA-C*12:03 (setting [20]) is 6.49; in the experiment with HLA-C*15:02 it was at most 4.70; with HLA-C*03:03, 6.64; with HLA-A*02:01 [15] (setting [20]), 7.23; in the experiment with HLA-A*02:11 it was 6.62.

In general, pIC50 refers to the IC50 on a negative log10 scale, so that one unit is a factor of ten. One may read the pKd as the negative decadic logarithm of the Kd, by convention in mol/L.

(Values after the Immune Epitope Database (IEDB).)
